Assay results published in doi:10.1101/2025.07.03.663104 (bioRxiv, 2025).

Target: ThBP24k (recombinant, no tag named) (Magnaporthe oryzae, UniProt G4NG01)
Assay: BLI
Details: both partners purified

B1: OsPR5-His (natural protein)
chain: ATFTITNRCSFTVWPAATPVGGGVQLSPGQTWTINVPAGTSSGRVWGRTGCSFDGSGRGSCATGDCAGALSCTLSGQKPLTLAEFTIGGSQDFYDLSVIDGYNVAMSFSCSSGVTVTCRDSRCPDAYLFPEDNTKTHACSGNSNYQVVFCP
Binder B1 has a Kd of 2.41 nM.
